Measurements taken from the supplement of paper PMC10567573.
± gives the standard deviation.

Assay: protein stability index of a GFP-peptide fusion (GPS, HEK-293T) (PSI 1-6); higher = more stable
Conditions: c terminus: a fixed tail appended
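Further: 24-mer peptide tiles fused after GFP, lentivirally expressed, FACS-sorted into six equal bins by GFP/DsRed ratio, decoded by Illumina sequencing, PSI is the read-weighted mean bin number.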

| Sequence | protein stability index (treatment: DMSO) | protein stability index (treatment: MLN4924 1 uM, 8 h) |
| --- | --- | --- |
| DPDGLVATYISEVHEHDGHLYLGS [APMAP] | 3.87 ± 0.18 | 3.94 ± 0.39 |
| EGQRQAQEYEALLNIKVKLEAEIA [KRT18] | 3.94 ± 0.18 | 4 ± 0.43 |
| YSQKESGHSNWLGDPEEPLTGFSW [ATL3] | 1.92 ± 0.44 | 2.78 ± 0.1 |
| MLLRKFAESKGTGREKPGPLDFEA [FCHO1] | 2.84 ± 0.034 | 2.86 ± 0.5 |
| IEAEGATAPLTELLHSRNEGVATY [CTNNB1] | 4.32 ± 0.27 | 4.31 ± 0.25 |
| LDVVDNQTEKLDTNITEVDAASVY [CASP6] | 5.06 ± 0.15 | 5.25 ± 0.15 |
| IEARRRALKRFVNLVARHPLFSED [SNX8] | 2.37 ± 0.67 | 2.61 ± 0.43 |
| GNPSTNSRVTASSGITIPKPPKPP [SMARCE1] | 4.67 ± 0.32 | 4.7 ± 0.13 |
| ALTNIQNCMAEKRETVLIETQLKA [C8orf76] | 3.19 ± 0.34 | 3.09 ± 0.47 |
| ERAELAASLGLTQTQVKIWFQNKR [DLX1] | 3.59 ± 0.34 | 3.87 ± 0.44 |
| KKYRLTEHERAHRGEKPHGCSLCG [ZNF649] | 3.72 ± 0.37 | 3.85 ± 0.36 |
| ESKEPIEEEPTGAGLNKDKETEER [SDE2] | 5.57 ± 0.34 | 5.7 ± 0.13 |
| KLYTGPGLAIHCMQVHKETIDAVP [ZNF207] | 2.5 ± 0.36 | 2.61 ± 0.3 |
| MDSRTVFGAWRCLLDATVAGGQTR [FCHSD1] | 1.92 ± 0.4 | 2.01 ± 0.33 |
| EGENYQKGERGEDSSEEKHLEEPG [CHGB] | 5.63 ± 0.39 | 5.57 ± 0.32 |
| ELEGDVAEPLAGPACVTVILPSCV [KLHL14] | 3.32 ± 0.54 | 3.14 ± 0.14 |
| CPTFRVSIARLEMGPDEYEEMEEE [FBXO3] | 4.7 ± 0.18 | 5.07 ± 0.21 |
| LSEGSSNEDEDLGPCEGPSKEDKD [SPANXN3] | 5.71 ± 0.31 | 5.37 ± 0.41 |
| KELGQSQKEQGLSDNILSPVMNGG [PDZK1] | 4.73 ± 0.34 | 5.09 ± 0.28 |
| MVFIAGILLNGVSGWIFFYVPSSE [P2RY14] | 2.94 ± 0.34 | 2.84 ± 0.51 |
| FQHHAKPNCFRKDPDINMHPFFFA [FADS1] | 2.2 ± 0.43 | 2.29 ± 0.19 |
| SNADQLMENIGAIQVLPKLSSSII [KCNAB2] | 3.21 ± 0.38 | 3.23 ± 0.29 |

| Sequence | protein stability index (treatment: DMSO) | protein stability index (treatment: MLN4924 1 uM, 8 h) |
| --- | --- | --- |
| DGKCAYRASYSDGKLKAPPKPCAG [MLH1] | 4.11 ± 0.3 | 4.06 ± 0.056 |
| FGVAVVITNQVVAQVDGAAMFAAD [RAD51] | 3.26 ± 0.59 | 2.96 ± 0.62 |
| SHQNLRVDDLSVEWDAMGGKVQDI [FSD1] | 4.49 ± 0.19 | 4.47 ± 0.28 |
| SEVSFEGAYGNLKRLYDKAAKMYH [SMG5] | 2.44 ± 0.29 | 2.23 ± 0.29 |
| AAVSRKKKRRMGTYSLVPKKKTKV [EHMT1] | 4.29 ± 0.32 | 4.32 ± 0.24 |
| NSAHHCVVEVENFLFVLGGEDQWN [KLHL14] | 2.12 ± 0.27 | 2.07 ± 0.3 |
| LNATSKFMEFYQDVKDWWLFGFYF [EDNRA] | 2.49 ± 0.86 | 2.13 ± 0.37 |
| LSHLLGDAGSPYLIGLISDRLRRN [SPNS1] | 2.18 ± 0.36 | 2.16 ± 0.39 |
| LRVMETKPDKAVSIIECDMNVDFD [UFD1] | 3.57 ± 0.43 | 3.53 ± 0.28 |
| DINSVRYYPSGDAFASGSDDATCR [GNB5] | 4.03 ± 0.047 | 4.22 ± 0.16 |
| DALDSEGRDSEGPAEGEGRLGRCM [KCNG1] | 5.34 ± 0.28 | 5.53 ± 0.21 |
| EHKGWYSWVLSMLYGFLLTFGFIT [CLPTM1] | 2.4 ± 0.56 | 2.62 ± 0.37 |
| EKTGPQLTSRIKGDWIGLYRHFLK [DENND6A] | 2.15 ± 0.34 | 2.08 ± 0.21 |
| PDMETKLLFMTSRVRFGQQKRYQD [INTS3] | 2.92 ± 0.24 | 3.09 ± 0.32 |
| FYRSTAPSEDIWKKFELVPSPPTS [MYCL] | 2.67 ± 0.15 | 2.76 ± 0.32 |
| RQLLRDFQSRLPYQYLHYALFKAN [P3H4] | 2.49 ± 0.29 | 2.16 ± 0.43 |
| DRLRDEELAELEDALRNLKCGSGA [TRADD] | 4.95 ± 0.23 | 4.95 ± 0.24 |
| SLKDHKVSFLRSGTKLIFRRRPRQ [C2CD2L] | 3.24 ± 0.49 | 3.44 ± 0.55 |
| LPQDEGGGGYSSVRYSDCCERVVI [KCNA4] | 2.41 ± 0.3 | 2.77 ± 0.53 |
| PGGLVGSADVVSPSGHSDAQTLAM [PPFIA4] | 4.57 ± 0.22 | 4.43 ± 0.93 |
| EKEAKDLTELVQRRITYLQNPKDC [FUT8] | 4.76 ± 0.17 | 4.9 ± 0.13 |
| EECPAHLLEDPLCADVILVLQERV [RHOBTB2] | 3.4 ± 0.42 | 3.47 ± 0.52 |
